Measurements reported in patent publication US20240391997A1 (BRIGHTPATH BIOTHERAPEUTICS, published 2024).

Tests used:
[1] = biological target: T1, human Tim-3 expressed on cells (Jurkat cells stably expressing, Expi293 cells transiently expressing, … (human, UniProt Q8TDQ0 22-301)); experiment: flow cytometry on activated human CD4 T cells, KD from MFI curve
T1 construct: whole, on cells; One entry for all cell-surface forms; the cell type is named under assay; also called human Tim-3 expressed on the cell membrane

[2] = biological target: T1, human Tim-3 expressed on cells (Jurkat …); experiment: flow cytometry on Jurkat cells stably expressing human Tim-3, KD from MFI curve
[3] = biological target: T1, human Tim-3 expressed on cells (Jurkat …); experiment: flow cytometry on Expi293 cells transiently expressing human Tim-3, KD from MFI curve
[4] = biological target: T2, biotinylated human Tim-3-Fc antigen (in-house preparation) (human, biotinylated); experiment: competition ELISA, biotinylated Tim-3-Fc premixed with antibody, binding to coated human Galectin-9
T2 construct: limits of the Tim-3 part not given

[5] = biological target: T2, biotinylated human Tim-3-Fc antigen …; experiment: as above; remark: listed apart in the source
[6] = biological target: T2, biotinylated human Tim-3-Fc antigen …; experiment: competition flow cytometry, biotinylated Tim-3-Fc premixed with antibody, binding to phosphatidylserine on apoptotic Jurkat cells (ligand not a protein)
[7] = biological target: T1, human Tim-3 expressed on cells (Jurkat …); experiment: flow cytometry on activated human CD8 T cells, KD from MFI curve
[8] = biological target: T2, biotinylated human Tim-3-Fc antigen …; experiment: competition flow cytometry, biotinylated Tim-3-Fc premixed with antibody, binding to phosphatidylserine on apoptotic Jurkat cells (ligand not a protein); remark: listed apart in the source
[9] = biological target: T2, biotinylated human Tim-3-Fc antigen …; experiment: competition ELISA: biotinylated human Tim-3-Fc premixed with the antibody, added to plate-bound human Galectin-9 (blocked ligand); streptavidin-HRP; Binding (%)
[10] = biological target: T1, human Tim-3 expressed on cells (Jurkat …); experiment: flow cytometry on Jurkat cells stably expressing human Tim-3, KD from MFI curve; remark: listed apart in the source
[11] = biological target: T1, human Tim-3 expressed on cells (Jurkat …); experiment: flow cytometry on Expi293 cells transiently expressing human Tim-3, KD from MFI curve; remark: listed apart in the source
[12] = biological target: T2, biotinylated human Tim-3-Fc antigen …; experiment: competition ELISA, biotinylated Tim-3-Fc premixed with antibody, binding to coated human Galectin-9; remark: listed apart in the source
[13] = biological target: T2, biotinylated human Tim-3-Fc antigen …; experiment: competition flow cytometry, biotinylated Tim-3-Fc premixed with antibody, binding to phosphatidylserine on apoptotic Jurkat cells (ligand not a protein); remark: listed apart in the source
[14] = biological target: T1, human Tim-3 expressed on cells (Jurkat …); experiment: flow cytometry on activated human CD4 T cells, KD from MFI curve; remark: listed apart in the source
[15] = biological target: T1, human Tim-3 expressed on cells (Jurkat …); experiment: flow cytometry on activated human CD8 T cells, KD from MFI curve; remark: listed apart in the source

Row | Binder | Kd [1] | Kd [2] | Kd [3] | inhibition of the binding between human Tim-3 and human Galectin-9 [4] | IC50 [5] | IC50 [6] | Kd [7] | IC50 [8] | IC50 (read off the curve) [9] | Kd [10] | Kd [11] | IC50 [12] | IC50 [13] | Kd [14] | Kd [15]
1 | Ch428003ct antibody (bispecific antibody, not shown: a dimerising Fc or GST) scFv 1: EVMLMESGGGLVKLGGSLKLSCAASGFTFSSYYMSWVRQTPEKRLEWVATISNSGGSIYYLDSVKDRFTISRDNAKNTLYLQMSSLNSEDTAVYYCARDPYYSNYVPMDYWGQGTSVTVSSGGGGSGGGGSGGGGSGGGGSSIVMTQTPKFMSTSVGDRVSVTCKASQYVDTYVAWYQQKPGQSPKPLIYSASTRHTGVPARFTGSGSGTDFTLTISNVQSEDLAEYFCAQYSSSPLTFGAGTKLELK scFv 2: QVQLQQSGPELVKPGDSVKMSCKASGYTFTDYYMDWVKQSHGKSLEWIGYIYPNNGGTSYNQKFKGKATLTVDKSSSTAYMELHSLTSEDSAVYYCARGGYYSYYSYDYWGQGTTLTVSSGGGGSGGGGSGGGGSGGGGSSIVMTQTPKFLPVSAGDRVTMTCKASQSVGNNVAWYQQKPGQSPKLLIYYASNRYTGVPDRFTGSGSGTDFTFTISSVQVEDLAVYFCQQHYSSPYTFGTGTKLEIK | 0.218 nM | 0.194 nM | 1.37 nM | ≥ 90% | 0.454 nM | 12.8 nM | – | – | – | – | – | – | – | – | –
2 | Ch149003ct antibody (bispecific antibody, not shown: a dimerising Fc or GST) scFv 1: EVMLMESGGGLVKLGGSLKLSCAASGFTFSSYYMSWVRQTPEKRLEWVATISNSGGSIYYLDSVKDRFTISRDNAKNTLYLQMSSLNSEDTAVYYCARDPYYSNYVPMDYWGQGTSVTVSSGGGGSGGGGSGGGGSGGGGSSIVMTQTPKFMSTSVGDRVSVTCKASQYVDTYVAWYQQKPGQSPKPLIYSASTRHTGVPARFTGSGSGTDFTLTISNVQSEDLAEYFCAQYSSSPLTFGAGTKLELK scFv 2: QVQLQQSGPERVKPGDSVKMSCKASGYTFTDYYMDWVKQSHGKSLEWIGYIYPNNGGTSYNQKFKGKATLTVDKSSSTAYMELHSLTSEDSAVYYCARSGYGNYYTMDYWGQGTSVTVSAGGGGSGGGGSGGGGSGGGGSSIVMTQTPKFMPVSAGDRVTMTCKASQSVGNNVAWYQQKPGQSPKLLIYYASNRYTGVPDRFTGSGSGTDFTFTISSVQVEDLAVYFCQQHYSSPSTFGTGTKLEIK | 0.508 nM | 0.404 nM | 2.17 nM | ≥ 90% | 0.589 nM | 22.9 nM | 0.558 nM | – | – | – | – | – | – | – | –
3 | Hu621003ct antibody (bispecific antibody, not shown: a dimerising Fc or GST) scFv 1: QVQLQESGGGLVKPGGSLKLSCAASGFTFSSYYMSWVRQTPDKRLEWVATISNSGGSTYYPDSVKDRFTISRDNAKNTLYLQMSSLKSEDTAMYYCARDPYYTNYVPMDYWGQGTMVTVSSGGGGSGGGGSGGGGSGGGGSDIVMTQSPSFLSASVGDRVTITCKASQYVDTYVAWYQQRPGKAPKPLIYSASTRHTGVPSRFSGSGSGTEFTLTISSLQPEDFATYFCAQYSSSPLTFGGGTKLELK scFv 2: QVQLVQSGAEVKKPGASVKVSCKASGYTFTDYYMDWVRQAPGQGLEWLGYIYPNKGGTSYNQKFKGRVTMTTDKSTSTAYMELRSLRSDDTAVYYCARSGYKAYYAMDYWGQGTTVTVSSGGGGSGGGGSGGGGSGGGGSDIVMTQSQKFMSTSVGDRVSITCKASQSVGNNVAWYQQKPGQSPKLLIYYASNRYTGVPDRFTGSGSGTDFTLTISNMQSEDLADYFCQQHYSSPYTFGGGTKLEIK | – | – | – | ≥ 90% | – | – | – | – | – | 0.283 nM | 2.27 nM | 0.819 nM | 32.3 nM | – | –

Results, then the binder that gave them:

Row | Kd [1] | Kd [2] | Kd [3] | inhibition of the binding between human Tim-3 and human Galectin-9 [4] | IC50 [5] | IC50 [6] | Kd [7] | IC50 [8] | IC50 (read off the curve) [9] | Kd [10] | Kd [11] | IC50 [12] | IC50 [13] | Kd [14] | Kd [15] | Binder
4 | 0.287 nM | 0.256 nM | 1.82 nM | ≥ 90% | 0.751 nM | 16.3 nM | 0.308 nM | – | – | – | – | – | – | – | – | Ch621003ct antibody (bispecific antibody, not shown: a dimerising Fc or GST) scFv 1: EVMLMESGGGLVKLGGSLKLSCAASGFTFSSYYMSWVRQTPEKRLEWVATISNSGGSIYYLDSVKDRFTISRDNAKNTLYLQMSSLNSEDTAVYYCARDPYYSNYVPMDYWGQGTSVTVSSGGGGSGGGGSGGGGSGGGGSSIVMTQTPKFMSTSVGDRVSVTCKASQYVDTYVAWYQQKPGQSPKPLIYSASTRHTGVPARFTGSGSGTDFTLTISNVQSEDLAEYFCAQYSSSPLTFGAGTKLELK scFv 2: QIQLQQSGPELVKPGDSVKMSCKASGYTFTDYYMDWVKQSHGKSLEWIGYIYPNNGGTSYNQKFKGKATLTVDKSSSTAYMELHSLTSEDSAVYYCARSGYKAYYAMDYWGQGTTLTVSSGGGGSGGGGSGGGGSGGGGSSIVMTQTPKFLPVSAGDRVTMTCKASQSVGNNVAWYQQKPGQSPKLLIYYASNRYTGVPDRFTGSGSGTDFTFTISSVQVEDLAVYFCQQHYSSPYTFGSGTKLEIK
5 | – | – | – | – | – | – | – | 10.7 nM | ~0.5 nM | – | – | – | – | – | – | Hu003_13_F20_LA antibody (antibody, V domains shown) VH: QVQLQESGGGLVKPGGSLKLSCAASGFTFSSYYMSWVRQTPDKRLEWVATISNSGGSTYYPDSVKDRFTISRDNAKNTLYLQMSSLKSEDTAMYYCARDPYYTNYVPMDYWGQGTMVTVSS VL: DIVMTQSPSFLSASVGDRVTITCKASQYVDTYVAWYQQRPGKAPKPLIYSASTRHTGVPSRFSGSGSGTEFTLTISSLQPEDFATYFCAQYSSSPLTFGGGTKLELK
6 | – | – | – | ≥ 90% | – | – | – | – | – | 0.904 nM | 4.16 nM | 1.12 nM | 32.3 nM | 0.917 nM | 0.97 nM | Hu149003ct antibody (bispecific antibody, not shown: a dimerising Fc or GST) scFv 1: QVQLQESGGGLVKPGGSLKLSCAASGFTFSSYYMSWVRQTPDKRLEWVATISNSGGSTYYPDSVKDRFTISRDNAKNTLYLQMSSLKSEDTAMYYCARDPYYTNYVPMDYWGQGTMVTVSSGGGGSGGGGSGGGGSGGGGSDIVMTQSPSFLSASVGDRVTITCKASQYVDTYVAWYQQRPGKAPKPLIYSASTRHTGVPSRFSGSGSGTEFTLTISSLQPEDFATYFCAQYSSSPLTFGGGTKLELK scFv 2: QVQLVQSGAEVKKPGASVKVSCKASGYTFTDYYMDWVRQAPGQGLEWLGYIYPNKGGTSYNQKFKGRVTMTTDKSTSTAYMELRSLRSDDTAVYYCARSGYGNYYTMDYWGQGTTVTVSSGGGGSGGGGSGGGGSGGGGSDIVMTQSQKFMSTSVGDRVSITCKASQSVGNNVAWYQQKPGQSPKLLIYYASNRYTGVPDRFTGSGSGTDFTLTISNMQSEDLADYFCQQHYSSPSTFGGGTKLEIK
7 | – | – | – | ≥ 90% | – | – | – | – | – | 0.232 nM | 2.3 nM | 0.712 nM | 27.3 nM | 0.279 nM | 0.263 nM | Hu428003ct antibody (bispecific antibody, not shown: a dimerising Fc or GST) scFv 1: QVQLQESGGGLVKPGGSLKLSCAASGFTFSSYYMSWVRQTPDKRLEWVATISNSGGSTYYPDSVKDRFTISRDNAKNTLYLQMSSLKSEDTAMYYCARDPYYTNYVPMDYWGQGTMVTVSSGGGGSGGGGSGGGGSGGGGSDIVMTQSPSFLSASVGDRVTITCKASQYVDTYVAWYQQRPGKAPKPLIYSASTRHTGVPSRFSGSGSGTEFTLTISSLQPEDFATYFCAQYSSSPLTFGGGTKLELK scFv 2: QVQLVQSGAEVKKPGASVKVSCKASGYTFTDYYMDWVRQAPGQGLEWLGYIYPNKGGTSYNQKFKGRVTMTTDKSTSTAYMELRSLRSDDTAVYYCARGGYYSYYSYDYWGQGTTVTVSSGGGGSGGGGSGGGGSGGGGSDIVMTQSQKFMSTSVGDRVSITCKASQSVGNNVAWYQQKPGQSPKLLIYYASNRYTGVPDRFTGSGSGTDFTLTISNMQSEDLADYFCQQHYSSPYTFGGGTKLEIK
